Measured values: publication doi:10.64898/2025.12.18.695077v1

Tested on: O=P(O)(OC[C@@H](O)CO)OC[C@@H](O)CO
Assay: purified protein
Details: co-substrate C22:6-CoA 100 uM, pH 7.4, 37 C, 0.05% LMNG

CLN8 (FLAG-STREP-tagged, purified from human Flp-In T-REx 293 cells) (Homo sapiens)
Km: 570 µM
kcat: 0.8022 s⁻¹
